{
  "source": "patent US20240084262A1",
  "about": "“METHODS FOR DIFFERENTIATION OF PANCREATIC EXOCRINE CELLS FROM HUMAN INDUCED PLURIPOTENT STEM CELLS” (CEDARS-SINAI MEDICAL CENTER, priority 2020, published 2024)",
  "molecules": {"B1": {"name": "FGF10: growth factor added to increase proliferation of pancreatic cells; activates PDX1 (protein, UniProt O15520 38-208, looked up)", "Fibroblast growth factor 10": "QALGQDMVSPEATNSSSSSFSSPSSAGRHVRSYNHLQGDVRWRKLFSFTKYFLKIEKNGKVSGTKKENCPYSILEITSVEIGVVAVKAINSNYYLAMNKKGKLYGSKEFNNDCKLKERIEENGYNTYASFNWQHNGRQMYVALNGKGAPRRGQKTRRKNTSAHFLPMVVHS"}, "B2": {"name": "sDLL1: Notch-activating ligand; extracellular signaling domain of DLL1 (protein, UniProt O00548 18-545, looked up)", "extracellular domain": "QVWSSGVFELKLQEFVNKKGLLGNRNCCRGGAGPPPCACRTFFRVCLKHYQASVSPEPPCTYGSAVTPVLGVDSFSLPDGGGADSAFSNPIRFPFGFTWPGTFSLIIEALHTDSPDDLATENPERLISRLATQRHLTVGEEWSQDLHSSGRTDLKYSYRFVCDEHYYGEGCSVFCRPRDDAFGHFTCGERGEKVCNPGWKGPYCTEPICLPGCDEQHGFCDKPGECKCRVGWQGRYCDECIRYPGCLHGTCQQPWQCNCQEGWGGLFCNQDLNYCTHHKPCKNGATCTNTGQGSYTCSCRPGYTGATCELGIDECDPSPCKNGGSCTDLENSYSCTCPPGFYGKICELSAMTCADGPCFNGGRCSDSPDGGYSCRCPVGYSGFNCEKKIDYCSSSPCSNGAKCVDLGDAYLCRCQAGFSGRHCDDNVDDCASSPCANGGTCRDGVNDFSCTCPPGYTGRNCSAPVSRCEHAPCHNGATCHERGHRYVCECARGYGGPNCQFLLPELPPGPAVVDLTEKLEGQGGPFPW", "modifications": "extracellular domain", "notes": "extracellular signaling domain of DLL1"}},
  "key": {"[1]": {"test_system": "iPSC-derived pancreatic progenitors", "assay": "iPan Ductal maturation/specification (qPCR, ICC)", "format": "cell-based, human", "experimental": "After 1 day of Phase III, on Day 7, cells were single cell dissociated with TrypLE for 3-6 minutes, washed and seeded at 33% confluency (9.5×10^4 cells/cm^2) in Phase III media plus 10 μM Rho kinase Inhibitor. On Day 8 onwards, cells were treated with Phase IV media—addition of FGF10 (25 ng/ml), EGF (50 ng/ml), and sDLL-1 (25 ng/ml, Peprotech). The base media for phase III and IV consists of DMEM, lx Pen-Strep, 1×B27 without Vitamin A (Thermo Fisher), and Vitamin C (250 μM).\nFor organoids, Cell Recovery Solution (Corning) was added for an hour in 4° to remove Matrigel then washed 3× with PBS. Total RNA was isolated with RLT buffer (Qiagen), syringed with 23 G needle, then extracted with RNeasy Micro Kit (Qiagen) according to the manufacturer's instructions. The concentration and the purity of RNA was determined with NanoDrop. 1-2 μg RNA was reverse transcribed to cDNA High-Capacity cDNA Reverse Transcription kit (Thermo Fisher). Real-time qPCR was performed (technical replicates, n=3-4) using SYBR Master Mix (Applied Biosystems, #4472952) and specific primer sequences to each gene (Table 1), on a CFX384 Real Time system (Bio-Rad). Human RPL13 was used as the reference gene and relative expression was determined using 2-ΔΔ Ct method.\nPlanar cultures were fixed with 4% PFA for 15 minutes, washed with PBS and then blocked overnight at 4° C. with 10% donkey serum containing 0.1% Triton-X100. After overnight incubation with primary antibodies at 4° C., cells were washed with 0.1% TWEEN-20 3× for 5 min, incubated with secondary antibodies for an hour at RT, and finally incubated with Hoechst 33342 (1:2000 dilution) for 15 minutes for nuclear counterstaining.\nTo optimize the ductal maturation phase, the effect of dissociating pancreatic progenitors on Day 7 and adding growth factor EGF and the Notch activating ligand sDLL-1 to the cultures was explored. FGF10 was also added at this time to increase proliferation of pancreatic cells. Based on our results, we incorporated a dissociation step prior to initiating EGF and Notch signaling in our defined iPan Ductal protocol (FIG. 2A). Dissociation of pancreatic progenitor cells inhibited acinar differentiation by Day 21 (FIG. 2B)."}, "[2]": {"test_system": "iPSC-derived pancreatic progenitors", "assay": "Acinar differentiation of iPSC-derived pancreatic progenitors (ICC)", "format": "cell-based, human", "settings": "for PDX1 levels / expression / amylase positive clusters / cells: Notch modulation in the presence of FGF10", "experimental": "Using the same DMEM base media, cells were then treated daily for seven days with XXI, FGF10, Noggin, Nicotinamide, and Murine Wnt3a (Peprotech). By the end of this stage, cell clustering could be seen.\nPlanar fixed samples were fixed with 4% paraformaldehyde in PBS for 15 minutes. Following this, they were washed three times with PBS and then incubated with 10% donkey serum with 0.1% Triton-X for one hour. Primary antibodies diluted in the 10% blocking serum were added, and the samples were let incubate for three hours at room temperature or overnight at 4 C. From here, the samples were washed three times for five minutes each with 0.1% TWEEN in PBS. Secondary antibodies diluted at 1:1000 in the blocking serum were added and the samples were allowed to sit one hour at room temperature. Three rounds of five-minute washes with PBS were performed before Hoechst was added at a 1:2000 dilution in PBS. After a 15-minute room temperature incubation, samples were washed with PBS three times before being imaged.\nWe performed an experiment comparing the use of notch inhibitor XXI vs notch activator sDLL-1 with FGF10. […] We added Wnt3a as it is important."}, "[3]": {"settings": "sDLL1 for 2 weeks started late, at pancreatic endoderm stage, Day 21"}},
  "note": "“Also recorded” adds a separate entry of the source.",
  "data": [
    {"molecule": "EGF: growth factor EGF", "values": [
      {"measurement": "survival and confluency (immunocytochemistry)", "setting": "[1]; dissociated cells exposed to EGF", "value": "increased survival and confluency"},
      {"measurement": "levels of ductal markers KRT19, HNF1B, SOX9, FOXA2", "setting": "[1]; dissociated cells with exposure to EGF", "value": "increased levels of ductal KRT19, HNF1B, SOX9, and FOXA2 markers"}
    ]},
    {"molecule": "C[C@H](NC(=O)Cc1cc(F)cc(F)c1)C(=O)N[C@H]1N=C(c2ccccc2)c2ccccc2N(C)C1=O", "note": "[XXI]", "values": [
      {"measurement": "PDX1 levels / expression", "setting": "[2]", "value": "reduces PDX1 expression; also recorded: lowest PDX1 levels"},
      {"measurement": "amylase positive clusters / cells", "setting": "[2]", "value": "increases islands of amylase positive cells; also recorded: most increase in amylase positive clusters"}
    ]},
    {"molecule": "B1", "values": [
      {"measurement": "CTRC and amylase positive cell expression", "setting": "[2]; FGF10 tested at 0, 2.5, 20 and 50 ng/mL, result for 20 ng", "value": "most CTRC and amylase positive cell expression"}
    ]},
    {"molecule": "B2", "values": [
      {"measurement": "C-Peptide+ endocrine cells", "setting": "[1]; [3]", "value": "C-Peptide was elevated; also recorded: higher amount of C-Peptide^+ endocrine cells"},
      {"measurement": "ductal markers", "setting": "[1]; [3]", "value": "no increase in ductal markers"},
      {"measurement": "PDX1 levels / expression", "setting": "[2]", "value": "does not increase the Amylase positive clusters or decrease PDX1 levels"},
      {"measurement": "amylase positive clusters / cells", "setting": "[2]", "value": "does not increase the Amylase positive clusters"}
    ]}
  ]
}
